Results reported in US20050250700A1.
Bridge positions count the residues as written; N and C are the ends. Side chains are listed from the residue outwards. * marks the point of attachment. Biotin = O=C1N[C@H]2[C@H](CS[C@H]2CCCCC(=O)*)N1; AEEA = NCCOCCOCC(=O)O

Legend:
[1] = target: KDR (VEGFR-2), full-length receptor on cells (human), P35968; assay: competitor 125I-VEGF (300 pM) on KDR-transfected 293H cells; peptide 0.3 µM; details: remark: other sources report otherwise
[2] = target: KDR (VEGFR-2), full-length receptor on cells (human), P35968; assay: competitor 125I-VEGF (300 pM) on KDR-transfected 293H cells; peptide 30 µM; details: remark: other sources report otherwise

Sequence of KDR (VEGFR-2), full-length receptor on cells (human), P35968 (P35968 20-1356): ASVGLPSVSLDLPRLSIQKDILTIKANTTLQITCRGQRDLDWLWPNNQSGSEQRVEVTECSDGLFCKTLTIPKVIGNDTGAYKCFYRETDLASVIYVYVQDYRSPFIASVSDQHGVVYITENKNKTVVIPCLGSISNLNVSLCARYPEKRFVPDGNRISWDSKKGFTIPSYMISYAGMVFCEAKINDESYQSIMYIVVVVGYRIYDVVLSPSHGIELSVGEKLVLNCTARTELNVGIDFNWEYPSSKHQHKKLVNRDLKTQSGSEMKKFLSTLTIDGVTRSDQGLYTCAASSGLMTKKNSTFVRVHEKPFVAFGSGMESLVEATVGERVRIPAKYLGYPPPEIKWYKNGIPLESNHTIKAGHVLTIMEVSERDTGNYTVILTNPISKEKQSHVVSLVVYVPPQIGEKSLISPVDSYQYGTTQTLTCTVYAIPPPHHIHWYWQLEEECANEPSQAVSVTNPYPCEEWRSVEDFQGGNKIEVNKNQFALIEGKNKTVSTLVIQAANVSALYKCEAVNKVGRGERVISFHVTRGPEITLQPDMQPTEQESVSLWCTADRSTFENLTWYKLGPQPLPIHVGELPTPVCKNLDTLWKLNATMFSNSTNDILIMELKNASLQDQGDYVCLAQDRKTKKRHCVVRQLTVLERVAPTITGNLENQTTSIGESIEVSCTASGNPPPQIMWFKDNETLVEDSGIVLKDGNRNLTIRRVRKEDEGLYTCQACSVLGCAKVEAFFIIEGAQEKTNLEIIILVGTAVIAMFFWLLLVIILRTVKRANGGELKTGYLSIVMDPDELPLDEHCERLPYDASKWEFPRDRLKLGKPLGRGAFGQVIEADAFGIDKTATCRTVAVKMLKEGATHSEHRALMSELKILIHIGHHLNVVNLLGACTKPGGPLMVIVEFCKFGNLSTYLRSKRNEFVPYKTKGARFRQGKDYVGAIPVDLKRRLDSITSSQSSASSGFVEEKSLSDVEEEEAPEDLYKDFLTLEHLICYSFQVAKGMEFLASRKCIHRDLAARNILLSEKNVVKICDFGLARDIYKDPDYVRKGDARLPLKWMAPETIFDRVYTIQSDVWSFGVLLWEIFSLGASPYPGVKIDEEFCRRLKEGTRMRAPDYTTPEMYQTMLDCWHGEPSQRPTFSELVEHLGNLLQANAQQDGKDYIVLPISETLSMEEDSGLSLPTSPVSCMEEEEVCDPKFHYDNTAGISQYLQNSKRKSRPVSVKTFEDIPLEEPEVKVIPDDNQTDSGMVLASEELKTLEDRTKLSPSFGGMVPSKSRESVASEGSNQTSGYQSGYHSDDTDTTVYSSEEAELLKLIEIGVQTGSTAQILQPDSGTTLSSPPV

% inhibition of 125I-labeled VEGF binding [1]: 24.4%
% inhibition of 125I-labeled VEGF binding [2]: 48%
Binder: Ac-AGPKWCEEDWYYCMITGTGGGK([AEEA-AEEA-Biotin])-NH2 (disulfide 6-13 (inferred)) [biotinylated SEQ ID NO:264 with a JJ spacer]
